Reference: patent US20170137467A1 (CHROMOTEK, published 2017)
Values belong to the binder of their own block, whether it stands above or below them. Square brackets hold non-standard residues; d marks the D form. GABA = NCCCC(=O)O

Key:
Assay in all cases: positional peptide library pulldown on immobilised Nb, LC-MS of supernatant; signal ratio to control GFP-Nb (1 = not captured, near 0 = captured)
[1] = target: T1, BC2T V7R
T1 construct: positional scanning library member
T1 peptide: Ac-PDRKAARSHWQQ-NH2
Procedure, shortened: (§1)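 Unbound peptide left in supernatant after 1 h pulldown in PBS/0.01% CHAPS measured by reversed-phase LC-MS (8–30% eluent B gradient, 20 min).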

[2] = target: T2, BC2T R3Y
T2 construct: positional scanning library member
T2 peptide: Ac-PDYKAAVSHWQQ-NH2
Procedure, shortened: as §1

[3] = target: T3, BC2T K4H
T3 construct: positional scanning library member
T3 peptide: Ac-PDRHAAVSHWQQ-NH2
Procedure, shortened: as §1

[4] = target: T4, BC2T R3T
T4 construct: positional scanning library member
T4 peptide: Ac-PDTKAAVSHWQQ-NH2
Procedure, shortened: as §1

[5] = target: T5, BC2T P1K
T5 construct: positional scanning library member
T5 peptide: Ac-KDRKAAVSHWQQ-NH2
Procedure, shortened: as §1

[6] = target: T6, BC2T A5W
T6 construct: positional scanning library member
T6 peptide: Ac-PDRKWAVSHWQQ-NH2
Procedure, shortened: as §1

[7] = target: T7, BC2T A6D
T7 construct: positional scanning library member
T7 peptide: Ac-PDRKADVSHWQQ-NH2
Procedure, shortened: as §1

[8] = target: T8, BC2T D2C(Abu) (SMILES …)
T8 construct: positional scanning library member
T8 peptide: Ac-P[GABA]RKAAVSHWQQ-NH2
Procedure, shortened: as §1

[9] = target: T9, BC2T V7T
T9 construct: positional scanning library member
T9 peptide: Ac-PDRKAATSHWQQ-NH2
Procedure, shortened: as §1

[10] = target: T10, BC2T P1R
T10 construct: positional scanning library member
T10 peptide: Ac-RDRKAAVSHWQQ-NH2
Procedure, shortened: as §1

[11] = target: T11, BC2T A6K
T11 construct: positional scanning library member
T11 peptide: Ac-PDRKAKVSHWQQ-NH2
Procedure, shortened: as §1

[12] = target: T12, BC2T K4S
T12 construct: positional scanning library member
T12 peptide: Ac-PDRSAAVSHWQQ-NH2
Procedure, shortened: as §1

[13] = target: T13, BC2T R3E
T13 construct: positional scanning library member
T13 peptide: Ac-PDEKAAVSHWQQ-NH2
Procedure, shortened: as §1

[14] = target: T14, BC2T P1N
T14 construct: positional scanning library member
T14 peptide: Ac-NDRKAAVSHWQQ-NH2
Procedure, shortened: as §1

[15] = target: T15, BC2T A6H
T15 construct: positional scanning library member
T15 peptide: Ac-PDRKAHVSHWQQ-NH2
Procedure, shortened: as §1

[16] = target: T16, BC2T K4R
T16 construct: positional scanning library member
T16 peptide: Ac-PDRRAAVSHWQQ-NH2
Procedure, shortened: as §1

[17] = target: T17, BC2T peptide PDRKAAVSHWQQ (human)
T17 construct: aa 16-27 of beta-catenin; also called BC2-tag; BC2-peptide
T17 peptide: Ac-PDRKAAVSHWQQ-NH2
Procedure, shortened: as §1

[18] = target: T18, BC2T Q12E
T18 construct: positional scanning library member
T18 peptide: Ac-PDRKAAVSHWQE-NH2
Procedure, shortened: as §1

[19] = target: T19, BC2T H9E
T19 construct: positional scanning library member
T19 peptide: Ac-PDRKAAVSEWQQ-NH2
Procedure, shortened: as §1

[20] = target: T20, BC2T S8K
T20 construct: positional scanning library member
T20 peptide: Ac-PDRKAAVKHWQQ-NH2
Procedure, shortened: as §1

[21] = target: T21, BC2T Q11P
T21 construct: positional scanning library member
T21 peptide: Ac-PDRKAAVSHWPQ-NH2
Procedure, shortened: as §1

ratio [1]: 0.1 | ratio [2]: 0.9 | ratio [3]: 0.2 | ratio [4]: 0.6 | ratio [5]: 0.3 | ratio [6]: 0 | ratio [7]: 1 | ratio [8]: 0.2 | ratio [9]: 0.2 | ratio [10]: 0.2 | ratio [11]: 0.9 | ratio [12]: 0.6 | ratio [13]: 1 | ratio [14]: 0.7 | ratio [15]: 1 | ratio [16]: 0.1
B1: BC2-NbR106E (VHH)
VHH: QVQLVESGGGLVQPGGSLTLSCTASGFTLDHYDIGWFRQAPGKEREGVSCINNSDDDTYYADSVKGRFTIFMDNAKDTVYLQMNSLKPEDTAIYYCAEARGCKRGEYEYDFWGQGTQVTVSS
notes: headlock mutant of BC2-Nb; immobilised on beads in this assay

B2: BC2 nanobody (VHH)
VHH: QVQLVESGGGLVQPGGSLTLSCTASGFTLDHYDIGWFRQAPGKEREGVSCINNSDDDTYYADSVKGRFTIFMDNAKDTVYLQMNSLKPEDTAIYYCAEARGCKRGRYEYDFWGQGTQVTVSS
notes: immobilised on beads in this assay; also called BC2-Nb; BC2 nanotrap (immobilised)
ratio [17]: 0.1 | ratio [18]: 0.4 | ratio [19]: 0.2

ratio [20]: 0.9 | ratio [21]: 0.9
B3: BC2-NbR106S (VHH)
VHH: QVQLVESGGGLVQPGGSLTLSCTASGFTLDHYDIGWFRQAPGKEREGVSCINNSDDDTYYADSVKGRFTIFMDNAKDTVYLQMNSLKPEDTAIYYCAEARGCKRGSYEYDFWGQGTQVTVSS
notes: as for B1
